Substitutions are numbered along the chain they refer to.

The target of experiment [1] is T1, human GPRC5D (human, UniProt Q9NZD1 1-345).
T1 construct: whole, on cells; Human is stated only for CHO-HuGPRC5D; also called HuGPRC5D; GPRC5D on CHO-HuGPRC5D cells
The experiment can be described thus: FACS on CHO-HuGPRC5D cells.

The target of experiment [2] is T1, human GPRC5D. The experiment can be described thus: FACS on H929 cells.
Experiment [3] deals with cynomolgus FcRH5 (cynomolgus). Nature of the experiment: FACS on RPMI8226-cyFcRH5 cells, VHH-His.
The target in experiment [4] is T2, human FcRH5 (human, UniProt Q96RD9 16-977).
T2 construct: whole, on cells; also called huFcRH5; RPMI8226-huFcRH5
T2 sequence (looked up): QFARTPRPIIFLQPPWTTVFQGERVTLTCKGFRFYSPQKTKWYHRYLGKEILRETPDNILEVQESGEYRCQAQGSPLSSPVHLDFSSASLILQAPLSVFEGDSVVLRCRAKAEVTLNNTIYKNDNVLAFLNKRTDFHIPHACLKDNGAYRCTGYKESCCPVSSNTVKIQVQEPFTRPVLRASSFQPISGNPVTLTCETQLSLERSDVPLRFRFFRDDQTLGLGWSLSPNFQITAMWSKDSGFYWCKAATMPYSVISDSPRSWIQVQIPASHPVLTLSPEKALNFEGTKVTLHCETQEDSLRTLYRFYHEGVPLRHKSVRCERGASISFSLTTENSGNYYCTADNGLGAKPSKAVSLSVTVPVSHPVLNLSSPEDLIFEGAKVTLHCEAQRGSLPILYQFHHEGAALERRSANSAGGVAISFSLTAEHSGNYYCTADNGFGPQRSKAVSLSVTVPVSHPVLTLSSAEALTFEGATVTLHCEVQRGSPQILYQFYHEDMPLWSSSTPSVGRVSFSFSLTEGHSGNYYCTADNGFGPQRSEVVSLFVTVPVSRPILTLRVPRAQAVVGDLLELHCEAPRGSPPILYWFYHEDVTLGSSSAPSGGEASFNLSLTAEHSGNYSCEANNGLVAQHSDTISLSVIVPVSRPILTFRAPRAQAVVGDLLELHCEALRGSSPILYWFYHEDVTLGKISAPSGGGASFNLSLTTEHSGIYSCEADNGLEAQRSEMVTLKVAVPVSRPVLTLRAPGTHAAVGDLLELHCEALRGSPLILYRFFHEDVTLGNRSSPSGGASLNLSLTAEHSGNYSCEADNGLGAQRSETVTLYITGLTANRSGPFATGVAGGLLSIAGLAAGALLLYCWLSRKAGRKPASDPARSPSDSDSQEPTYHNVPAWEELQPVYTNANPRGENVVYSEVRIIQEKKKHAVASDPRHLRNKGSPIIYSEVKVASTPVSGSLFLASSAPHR
Nature of the experiment: FACS binding to RPMI-huFCRH5 (HuFcRH5-RPMI8226) cells, VHH-His format. In general terms: Flow cytometry measures light scatter and fluorescence of single cells or particles in a stream.

For experiment [5], the target named is T2, human FcRH5. The experiment can be described thus: FACS on RPMI8226-huFcRH5 cells, VHH-His.
The target in experiment [6] is T3, human BCMA (human, UniProt Q02223 1-184).
T3 construct: whole, on cells; Human is stated only for CHO-HuBCMA; also called HuBCMA; B-cell maturation antigen
T3 sequence (looked up): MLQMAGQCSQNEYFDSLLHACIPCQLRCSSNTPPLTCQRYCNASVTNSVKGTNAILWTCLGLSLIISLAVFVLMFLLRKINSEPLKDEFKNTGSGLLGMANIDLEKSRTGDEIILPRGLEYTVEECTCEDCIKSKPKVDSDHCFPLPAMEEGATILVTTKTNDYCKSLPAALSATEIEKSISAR
Nature of the experiment: FACS on RPMI8226 cells, Fc formatted.

Experiment [7] has as its target T3, human BCMA. Nature of the experiment: FACS binding to RPMI8226 cells, Fc format [upper panel RPMI8226].
In another experiment the target is T4, CD38 (UniProt P28907 1-300, limits assumed).
T4 construct: whole, on cells; also called CD38 on RPMI8226 cells; CD38 on H929 cells
T4 sequence (looked up): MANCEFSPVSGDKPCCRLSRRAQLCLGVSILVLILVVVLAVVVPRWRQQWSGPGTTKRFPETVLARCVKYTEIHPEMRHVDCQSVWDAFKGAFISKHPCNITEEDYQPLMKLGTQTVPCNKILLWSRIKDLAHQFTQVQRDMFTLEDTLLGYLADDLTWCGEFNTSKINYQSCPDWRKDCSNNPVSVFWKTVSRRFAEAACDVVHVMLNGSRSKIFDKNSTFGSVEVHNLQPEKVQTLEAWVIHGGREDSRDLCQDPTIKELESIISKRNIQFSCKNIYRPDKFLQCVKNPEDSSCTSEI
The experiment can be described thus: FACS binding to RPMI8226 cells, VHH-His format.

Experiment [8] concerns the target T1, human GPRC5D. Nature of the experiment: FACS on CHO-HuGPRC5D cells, VHH-His.
In experiment [9] the target is T1, human GPRC5D. Nature of the experiment: FACS on H929 cells, VHH-His.

T1 sequence (Q9NZD1 whole entry): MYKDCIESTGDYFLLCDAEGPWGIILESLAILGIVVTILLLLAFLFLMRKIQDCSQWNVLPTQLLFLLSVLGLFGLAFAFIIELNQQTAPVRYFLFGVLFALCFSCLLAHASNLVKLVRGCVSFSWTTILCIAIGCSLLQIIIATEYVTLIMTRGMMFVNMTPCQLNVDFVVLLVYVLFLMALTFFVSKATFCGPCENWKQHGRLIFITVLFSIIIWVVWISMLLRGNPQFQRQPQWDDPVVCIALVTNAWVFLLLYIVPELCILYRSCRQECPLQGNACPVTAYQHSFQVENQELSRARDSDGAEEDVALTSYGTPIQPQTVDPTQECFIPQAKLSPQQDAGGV

B1: GPRC5D-VHH2-H5 (VHH)
VHH: QVQLVESGGGLVQPGGSLRLSCAASGRTASAYVMGWFRQAPGKEREFVAGISGGAYYADSVKGRFTISRDNSKNTVYLQMNSLRAEDTAVYYCAAERGMRRLTESYQYDYWGQGTLVTVSS
notes: Humanized variant of GPRC5D-VHH2
Take B1: the EC50 (usually the midpoint of the concentration-response curve) in the experiment with human GPRC5D [1] stood at 0.3 nM; in the experiment with human GPRC5D [2], 0.06 nM.

B2: FcRH5-VHH3 (VHH)
VHH: QVQLVESGGGSVQAGGSLRLSCVDSGHTLSTYAMGWFRQAPGKEREFVAAIARDGGATYLSGSAQGRATISRDNAKSTVYLQMNNLKPDDTAVYYCAASSMFSTAKRDYSYWGQGTQVTVSSHHHHHH
For the molecule B2, in experiment [3], the EC50 was 97.2 nM. For the same molecule, the binding result in the experiment with human FcRH5 [4] is on record as “no binding (tested: 1000 nM)”.

B3: FcRH5-VHH1 (VHH)
VHH: QVQFVESGGGLVQAGGSLRLSCAASGITVSRNDMGWYRQAPGKQRELVAIMNRVGSTDTADSVKDRFTISRDNTKNTLYLQMNNLKPEDTAVYYCNALNTVITWPWGQGTQVTVSSHHHHHH
For B3, the midpoint of the response with human FcRH5 [5], the EC50, lay at 7.2 nM.

B4: BCMA-VHH22 (Fc fusion)
chain: HVQLVDSGGGLVQAGGSLRLSCAASGFTFDDYAMSWVRQAPGKGLEWVSAISWNGGSTYYAESMKGRFTISRDNTKNTLYLQMNSLKPEDSAVYYCVPVSHSDSVCGSPYMDYWGKGTLVTVSS
notes: not shown: Fc of the Fc formatted construct
For B4, a half-maximal response in the experiment with human BCMA [6] (EC50) required 49.2 nM.

B5: BCMA-VHH5 (Fc fusion)
chain: QVKLEESGGGLVQAGGSLRLSCAASGRTFSDYTVAWFRQAPGSEREFVAASVWTDGKPYYVDSVRGRFTISRDNAKNTVWLQMDSLQPDDTAVYYCQALTGGSWILDYWGQGTPVTVSS
notes: as for B4
As to B5, the midpoint of the response with human BCMA [6], the EC50, lay at 72.2 nM.

B6: BCMA-VHH24 (Fc fusion)
chain: QVKLEESGGGLVQAGGSLRLSCQVSGRTFASFAMAWFRQAPGKEREFVAGISWSGGFTSYADSVKGRFTISRDNAKHTVYLQMNSLKTEDTAMYYCGEWGGFSLLGQGTQVTVSS
notes: as for B4
With B6, the binding result with human BCMA [7] is given as “no binding (tested: about 500 nM (log 2.7))”.

B7: CD38-VHH4 (VHH)
VHH: QVQLVESGGGLVQPGGSLRLSCAASGFSLDYYHIGWFRQAPGKEREGISCISSSDGYTLYADSVKGRFTISRDNAKNTVYLQMNSLKPEDTAVYYCAASPRRLACAGSLYPPLSADFSSWGQGTQVTVSS
For B7, the binding result with CD38 was “binds”.

B8: GPRC5D-VHH3 (VHH)
VHH: QVKLVESGGGLVQPGGSLRLSCVGSGIIFSASNLAWYRQALGKQRELVAGVTGGGSINYADSVKGRFTISRDNAKNTIYLQMNSLKPEDTAVYYCNARRSYSHWGQGTRVTVSS
Consider B8, for which the results for the half-maximal effective concentration (EC50) in the experiment with human GPRC5D [8] and in the experiment with human GPRC5D [9] were 4.23 nM and 1.65 nM, respectively.

B9: GPRC5D-VHH3-H9 (VHH)
VHH: B8 VHH with K3Q, V23A, G24A, L41P, K86R, P87A, R109L
notes: Humanized variant of GPRC5D-VHH3
Consider B9, for which the values for the EC50 in the experiment with human GPRC5D [1] and with human GPRC5D [2] were 19.8 nM and 1.17 nM, respectively.

B10: BCMA-VHH21 (Fc fusion)
chain: QVKLEESGGGLVQAGGSLSLSCKASVRYFSTYAMGWFRQAPGKEREFVAAISWSGGSTYYADSVKGRFTISRDNAKNTVYLEMNSLKPEDTAVYYCAAPYGSSQNLEYDYWGQGTQVTVSS
notes: as for B4
Take B10: the binding result with human BCMA [7] is “no binding (tested: about 500 nM (log 2.7))”.

The values are drawn from patent US20260274983A1 (MODERNATX, published 2026).
